No end group written: not given here.
T1: Human TREM2 peptide (aa 149-163) (human, also: biotinylated)
T1 construct: also called truncated stalk peptide containing the ADAM10/17 cleavage site
T1 peptide: SFEDAHVEHSISRSL

T2: Mouse TREM2 peptide (aa 149-163) (mouse, UniProt Q99NH8 149-163, also: biotinylated)
T2 construct: range 149-163; also called truncated stalk peptide, mouse
T2 peptide (looked up): SFEGAQVEHSTSRNQ

T3: recombinant cynomolgus TREM2 ECD (cynomolgus, UniProt A0A2K5UY34 49-204)
T3 construct: extracellular domain; also called cyno TREM2
T3 sequence: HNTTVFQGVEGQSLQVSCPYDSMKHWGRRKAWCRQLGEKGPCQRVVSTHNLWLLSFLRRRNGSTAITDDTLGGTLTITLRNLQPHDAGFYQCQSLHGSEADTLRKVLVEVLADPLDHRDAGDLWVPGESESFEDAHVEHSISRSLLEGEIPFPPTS

T4: sTREM2 in cynomolgus CSF (cynomolgus monkey, UniProt A0A2K5UY34 49-187)
T4 construct: domain: soluble TREM2 (sTREM2); also called soluble TREM2 in healthy cynomolgus monkey CSF
T4 sequence: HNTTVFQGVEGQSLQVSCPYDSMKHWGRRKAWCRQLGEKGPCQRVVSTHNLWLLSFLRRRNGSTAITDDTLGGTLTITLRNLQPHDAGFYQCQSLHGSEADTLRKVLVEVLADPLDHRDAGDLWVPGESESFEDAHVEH


Key:
[1] = target: T1, Human TREM2 peptide (aa 149-163); assay: ELISA, biotinylated stalk peptide on streptavidin plate, anti-human kappa-HRP detection
Procedure: (§1) TREM2 antibodies were evaluated for binding to human and mouse TREM2 stalk region peptides. […] Antibody binding to TREM2 stalk peptides was detected using standard sandwich ELISA. Briefly, a 96-well half-area ELISA plate was coated with streptavidin overnight at 4° C. The following day, biotinylated TREM2 stalk peptides diluted in 1% BSA/PBS were added to the plate and incubated for 1 hour. Antibodies diluted in 1% BSA/PBS were then added and incubated for 1 hour. Antibodies bound to peptide were detected with anti-human kappa-HRP secondary antibody (Bethyl Laboratories, Inc.) diluted in 1% BSA/PBS. Plates were assayed by reaction with a detection reagent (One-step TMB Ultra, Thermo) and measurement of absorbance at 450 nm (A450) by standard spectrophotometry instrumentation (BioTek®). Data are shown as normalized values (fold over background where background=isotype control).

[2] = target: T2, Mouse TREM2 peptide (aa 149-163); assay: as above
Procedure: as §1

[3] = target: Mouse TREM2 peptide (aa 131-169) (mouse) (UniProt Q99NH8); assay: as above
[4] = target: Human TREM2 peptide (aa 129-172) (human); assay: as above
[5] = target: T3, recombinant cynomolgus TREM2 ECD; assay: SPR (Biacore), cynomolgus TREM2
Procedure: (§2) Surface plasmon resonance (Biacore™ 8K instrument) was used to measure anti-TREM2 antibody affinities for human and cynomolgus TREM2 ECD. Anti-TREM2 antibodies were captured using Human Fab Capture Kit (GE Healthcare Life Sciences, Catalog No. 28958325) on a Biacore Series S CM5 sensor chip (GE Healthcare Life Sciences, Catalog No. 29149604). Serial 3-fold dilutions of recombinant human or cynomolgus TREM2 were injected at a flow rate of 30 μL/min. Antibody binding was monitored for 300 seconds, followed by monitoring of antibody dissociation for 600+ seconds in HBS-EP+ running buffer (GE Healthcare Life Sciences, Catalog No. BR100669). The binding response was corrected by subtracting the RU value from a blank flow cell. A 1:1 Languir model of simultaneous fitting of kₒₙ, and koff was used for kinetics analysis.
(§3) The affinity of anti-TREM2 antibodies to human TREM2 and cynomolgus TREM2 were measured by Biacore (described in Example 1). The potency of anti-TREM2 antibodies were measured in healthy human volunteer CSF samples (Innovative Research) and healthy cynomolgus monkey CSF samples (Worldwide Primates), by MSD assay. The potency of each antibody was determined by its EC50. Briefly, MSD GOLD 96-well small spot streptavidin plates (MSD, Cat. No. L45SA) coated with capture antibody (biotinylated goat anti-human TREM2, R&D Systems, Cat. No. BAF1828) was incubated with biofluid samples diluted 1:3 in Assay Buffer (25% (v/v) MSD Blocker A (MSD, Cat. No. R93BA-A), 75% (v/v) TBST) for one hour at room temperature. After rinsing the wells with TBST, sulfo-tagged anti-TREM2 antibody was added in a serial dilution (4× dilution over 11 points) to the wells of the plate and incubated for one hour at room temperature. The wells were washed with TBST, and MSD Read Buffer (MSD, Cat. No. R92TC-3) was added to the wells. Signal from the samples were measured using an MSD Meso Sector 5600 device. EC50 values for each antibody was determined by four-parameter variable slope non-linear regression. Reference antibodies #1 and #2 correspond to 4C5 and 6E7 described in WO 2018/195506. Reference antibody #3 corresponds to AL2p-58 described in WO 2019/028292. The variable regions of reference antibody #1 are represented by SEQ ID NOS:73 and 74.

sTREM2 in cynomolgus CSF = target: T4, sTREM2 in cynomolgus CSF; assay: MSD assay, sTREM2 from CSF captured by biotinylated goat anti-human TREM2, sulfo-tagged test antibody titrated
Procedure: as §3, with “74. The variable regions of reference antibody #2 are represented by SEQ ID NOS:75 and 76. The variable regions of reference antibody #3 are represented by SEQ ID NOS:77 and 78.” for “74.”

[6] = target: T3, recombinant cynomolgus TREM2 ECD; assay: SPR (Biacore 8K), antibody captured with Human Fab Capture Kit, recombinant TREM2 ECD injected, 1:1 fit
Procedure: as §2

Sequence of Mouse TREM2 peptide (aa 131-169) (mouse) (Q99NH8 131-169 limits assumed, form in doubt): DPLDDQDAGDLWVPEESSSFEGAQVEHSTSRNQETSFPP
Sequence of Human TREM2 peptide (aa 129-172) (human) (peptide, as listed by the source): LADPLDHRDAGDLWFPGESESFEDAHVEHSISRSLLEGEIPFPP

| Molecule | A450 fold over background (background = isotype control) [2] [fold] | Kd [5] [nM] | EC50 (sTREM2 in cynomolgus CSF) [nM] | also measured |
| --- | --- | --- | --- | --- |
| Isotype control (antibody) | 1 | – | – | A450 fold over background (background = isotype control) [1]: 1 fold; A450 fold over background (background = isotype control) [3]: 1 fold; A450 fold over background (background = isotype control) [4]: 1 fold |
| Reference antibody #1 (antibody, V domains shown, also called 4C5 (WO 2018/195506)) VH: EVQLVQSGAEVKKPGESLKISCKGSGHSFTNYWIAWVRQMPGKGLEWMGIIYPGDSDTRYSPSFQGQVTISADKSISTAYLQWSSLKASDTAVYFCARQRTFYYDSSGYFDYWGQGTLVTVSS VL: DIQMTQSPSSVSASVGDRVTITCRASQGISNWLAWYQQKPGKAPKLLIYAASSLQVGVPLRFSGSGSGTDFTLTISSLQPEDFATYYCQQADSFPRNFGQGTKLEIK | – | 14 | 81.6 | – |
| CL0020123-5 (antibody, V domains shown, Humanized variant of CL0020123) VH: QVQLVQSGAEVKKPGASVKVSCKASGFSIEDFYIHWVRQAPGQGLEWMGWIDPEQGESKYAPKFQGRATITADTSTSTAYMELSSLRSEDTAVYYCHADHGNYGSTMDYWGQGTLVTVSS VL: DIQMTQSPSSLSASVGDRVTITCHASQHINVWLSWYQQKPGKAPKLLIYKASNLHTGVPSRFSGSGSGTDFTLTISSLQPEDFATYYCQQGQTYPRTFGQGTKVEIK | – | 9.3 | 49.4 | – |
| CL0020123 (antibody, V domains shown, also called Clone CL0020123) VH: EVQLQQSGAELVRSGASVKLSCTASGFSIEDFYIHWVKQRPEQGLEWIGWIDPENGDSKYAPKFQGKATMTADTSSNTAYLHLSSLTSEDTAVYYCHADHGNYGSTMDYWGQGTSVTVSS VL: DIQMNQSPSSLSASLGDTVTITCHASQHINVWLSWYQQKPGDHPKLLIYKASNLHTGVPSRFSGSGSGTGFTLTISSLQPEDIATYYCQQGQTYPRTFGGGTKLEIK | 0.9 | – | – | Kd [6]: 5.7 nM |
| CL0020123-7 (antibody, V domains shown, Humanized variant of CL0020123) VH: QVQLVQSGAEVKKPGASVKVSCKASGFSIEDFYIHWVRQAPGQGLEWMGWIDPENGESKYAPKFQGRVTITADTSTSTAYMELSSLRSEDTAVYYCHADHGNYGSTMDYWGQGTLVTVSS VL: DIQMTQSPSSLSASVGDRVTITCHASQHINVWLSWYQQKPGKAPKLLIYKASNLHTGVPSRFSGSGSGTDFTLTISSLQPEDFATYYCQQGQTYPRTFGQGTKVEIK | – | 9.4 | 16.9 | – |
| CL0020188 (antibody, V domains shown, also called Clone CL0020188) VH: EVKLLDSGGGLVQAGGSLRLSCAGSGFTFTDFYMSWIRQPPGKAPEWLGVIRNKANGYTAGYNPSVKGRFTISRDNTQNILYLQMNTLRAEDTAIYYCARLTYGFDYWGQGVMVTVSS VL: DIVMTQGALPNPVPSGESASITCQSSKSLLHSNGKTYLNWYLQRPGQSPQLLIYWMSTRASGVSDRFSGSGSGTDFTLKISSVEAEDVGVYYCQQFLEYPFTFGSGTKLEIK | 0.9 | – | – | Kd [6]: 2 nM; A450 fold over background (background = isotype control) [1]: 3 fold |

Second part, led by results:

| A450 fold over background (background = isotype control) [2] [fold] | Kd [5] [nM] | EC50 (sTREM2 in cynomolgus CSF) [nM] | Molecule | also measured |
| --- | --- | --- | --- | --- |
| – | 9.2 | 6.5 | Reference antibody #2 (antibody, V domains shown, also called 6E7 (WO 2018/195506)) VH: EVQLVQSGAEVKKPGESLKISCKGSGYSFTSYWIAWVRQMPGKGLEWMGIIYPGDSDTRYSPSFQGQVTISADKSISTAYLQWSSLKASDTAMYFCARQRTFYYDSSDYFDYWGQGTLVTVSS VL: DIQMTQSPSSVSASVGDRVTITCRASQGISSWLAWYQQKPGKAPKLLIYAASSLQNGVPSRFSGSGSGTDFTLTISSLQPEDFATYFCQQADSFPRTFGQGTKLEIK | – |
| – | 2.8 | 0.72 | CL0020188-7 (antibody, V domains shown, Humanized variant of CL0020188) VH: EVQLVESGGGLVQPGGSLRLSCAASGFTFTDFYMSWVRQAPGKGLEWVSVIRNKANAYTAGYNPSVKGRFTISRDNSKNTLYLQMNSLRAEDTAVYYCARLTYGFDYWGQGTLVTVSS VL: DIVMTQTPLSLPVTPGEPASISCQSSKSLLHSTGKTYLNWYLQKPGQSPQLLIYWMSTRASGVPDRFSGSGSGTDFTLKISRVEAEDVGVYYCQQFLEYPFTFGQGTKVEIK | – |
| – | 1.5 | 0.28 | CL0020188-4 (antibody, V domains shown, Humanized variant of CL0020188) VH: EVQLVESGGGLVQPGGSLRLSCAGSGFTFTDFYMSWVRQAPGKGPEWLSVIRNKANGYTAGYNPSVKGRFTISRDNSKNTLYLQMNSLRAEDTAVYYCARLTYGFDYWGQGTLVTVSS VL: DIVMTQTPLSLPVTPGEPASISCQSSKSLLHSTGKTYLNWYLQKPGQSPQLLIYWMSTRASGVPDRFSGSGSGTDFTLKISRVEAEDVGVYYCQQFLEYPFTFGQGTKVEIK | – |
| – | 9.2 | 33.7 | Reference antibody #3 (antibody, V domains shown, also called AL2p-58 (WO 2019/028292)) VH: QVQLVQSGAEVKKPGASVKVSCKASGYAFSSQWMNWVRQAPGQRLEWIGRIYPGGGDTNYAGKFQGRVTITADTSASTAYMELSSLRSEDTAVYYCARLLRNQPGESYAMDYWGQGTLVTVSS VL: DVVMTQSPDSLAVSLGERATINCRSSQSLVHSNRYTYLHWYQQKPGQSPKLLIYKVSNRFSGVPDRFSGSGSGTDFTLKISRVEAEDVGVYYCSQSTRVPYTFGQGTKLEIK | – |
